Measurements taken from IntAct's records for PubMed 19407142.

B1: Abscisic acid receptor PYR1 (Arabidopsis thaliana (Mouse-ear cress)), O49686 (parent)
chain: MPSELTPEERSELKNSIAEFHTYQLDPGSCSSLHAQRIHAPPELVWSIVRRFDKPQTYKHFIKSCSVEQNFEMRVGCTRDVIVISGLPANTSTERLDILDDERRVTGFSIIGGEHRLTNYKSVTTVHRFEKENRIWTVVLESYVVDMPEGNSEDDTRMFADTVVKLNLQKLATVAEAMARNSGDGSGSQVT
B2: Protein phosphatase 2C 77 (Arabidopsis thaliana (Mouse-ear cress)), O04719 (parent)
chain: MDEVSPAVAVPFRPFTDPHAGLRGYCNGESRVTLPESSCSGDGAMKDSSFEINTRQDSLTSSSSAMAGVDISAGDEINGSDEFDPRSMNQSEKKVLSRTESRSLFEFKCVPLYGVTSICGRRPEMEDSVSTIPRFLQVSSSSLLDGRVTNGFNPHLSAHFFGVYDGHGGSQVANYCRERMHLALTEEIVKEKPEFCDGDTWQEKWKKALFNSFMRVDSEIETVAHAPETVGSTSVVAVVFPTHIFVANCGDSRAVLCRGKTPLALSVDHKPDRDDEAARIEAAGGKVIRWNGARVFGVLAMSRSIGDRYLKPSVIPDPEVTSVRRVKEDDCLILASDGLWDVMTNEEVCDLARKRILLWHKKNAMAGEALLPAEKRGEGKDPAAMSAAEYLSKMALQKGSKDNISVVVVDLKGIRKFKSKSLN
B3: Protein phosphatase 2C 56 (Arabidopsis thaliana (Mouse-ear cress)), P49597 (parent)
chain: MEEVSPAIAGPFRPFSETQMDFTGIRLGKGYCNNQYSNQDSENGDLMVSLPETSSCSVSGSHGSESRKVLISRINSPNLNMKESAAADIVVVDISAGDEINGSDITSEKKMISRTESRSLFEFKSVPLYGFTSICGRRPEMEDAVSTIPRFLQSSSGSMLDGRFDPQSAAHFFGVYDGHGGSQVANYCRERMHLALAEEIAKEKPMLCDGDTWLEKWKKALFNSFLRVDSEIESVAPETVGSTSVVAVVFPSHIFVANCGDSRAVLCRGKTALPLSVDHKPDREDEAARIEAAGGKVIQWNGARVFGVLAMSRSIGDRYLKPSIIPDPEVTAVKRVKEDDCLILASDGVWDVMTDEEACEMARKRILLWHKKNAVAGDASLLADERRKEGKDPAAMSAAEYLSKLAIQRGSKDNISVVVVDLKPRRKLKSKPLN

Variants of: B1
Conditions: with HAB1, Q9CAJ0
Chain of HAB1, Q9CAJ0 (Q9CAJ0 whole entry): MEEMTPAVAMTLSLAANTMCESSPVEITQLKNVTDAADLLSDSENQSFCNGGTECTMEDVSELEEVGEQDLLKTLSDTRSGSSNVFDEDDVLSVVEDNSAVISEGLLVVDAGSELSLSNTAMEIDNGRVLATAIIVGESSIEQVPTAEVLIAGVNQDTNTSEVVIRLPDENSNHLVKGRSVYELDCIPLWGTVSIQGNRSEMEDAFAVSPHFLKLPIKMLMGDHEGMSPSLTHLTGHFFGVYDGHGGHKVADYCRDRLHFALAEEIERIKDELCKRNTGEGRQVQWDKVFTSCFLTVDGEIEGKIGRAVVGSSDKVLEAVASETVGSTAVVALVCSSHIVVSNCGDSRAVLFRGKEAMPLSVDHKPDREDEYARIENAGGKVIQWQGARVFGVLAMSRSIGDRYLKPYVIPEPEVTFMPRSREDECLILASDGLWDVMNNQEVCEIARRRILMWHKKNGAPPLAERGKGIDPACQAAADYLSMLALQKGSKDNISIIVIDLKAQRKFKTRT

Row | Variant | effect of a mutation on the interaction
1 | MPSELTPEERSELKNSIAEFHTYQLDPGSCSSLHAQRIHAPPELVWSIVRRFDKPQTYKHFIKSCSVEQNFEMRVGCTRDVIVISGLSANTSTERLDILDDERRVTGFSIIGGEHRLTNYKSVTTVHRFEKENRIWTVVLESYVVDMPEGNSEDDTRMFADTVVKLNLQKLATVAEAMARNSGDGSGSQVT | disrupting interaction
2 | MPSELTPEERSELKNSIAEFHTYQLDPGSCSSLHAQRIHAPPELVWSIVRRFDKPQTYKHFIKSCSVEQNFEMRVGCTRDVIVISGLPANTSTERLDILDDERRVTGFSIIGGEHRLTNYKSVTTVHRFEKENRIWTVVLESYVVDMPEGNLEDDTRMFADTVVKLNLQKLATVAEAMARNSGDGSGSQVT | disrupting interaction

Variants of: B2
Conditions: with pyr1_arath PYR1, O49686

Row | Variant | effect of a mutation on the interaction
3 | MDEVSPAVAVPFRPFTDPHAGLRGYCNGESRVTLPESSCSGDGAMKDSSFEINTRQDSLTSSSSAMAGVDISAGDEINGSDEFDPRSMNQSEKKVLSRTESRSLFEFKCVPLYGVTSICGRRPEMEDSVSTIPRFLQVSSSSLLDGRVTNGFNPHLSAHFFGVYDGHDGSQVANYCRERMHLALTEEIVKEKPEFCDGDTWQEKWKKALFNSFMRVDSEIETVAHAPETVGSTSVVAVVFPTHIFVANCGDSRAVLCRGKTPLALSVDHKPDRDDEAARIEAAGGKVIRWNGARVFGVLAMSRSIGDRYLKPSVIPDPEVTSVRRVKEDDCLILASDGLWDVMTNEEVCDLARKRILLWHKKNAMAGEALLPAEKRGEGKDPAAMSAAEYLSKMALQKGSKDNISVVVVDLKGIRKFKSKSLN [G168D] | disrupting interaction

Variants of: B3
Conditions: with pyr1_arath PYR1, O49686

Row | Variant | effect of a mutation on the interaction
4 | MEEVSPAIAGPFRPFSETQMDFTGIRLGKGYCNNQYSNQDSENGDLMVSLPETSSCSVSGSHGSESRKVLISRINSPNLNMKESAAADIVVVDISAGDEINGSDITSEKKMISRTESRSLFEFKSVPLYGFTSICGRRPEMEDAVSTIPRFLQSSSGSMLDGRFDPQSAAHFFGVYDGHDGSQVANYCRERMHLALAEEIAKEKPMLCDGDTWLEKWKKALFNSFLRVDSEIESVAPETVGSTSVVAVVFPSHIFVANCGDSRAVLCRGKTALPLSVDHKPDREDEAARIEAAGGKVIQWNGARVFGVLAMSRSIGDRYLKPSIIPDPEVTAVKRVKEDDCLILASDGVWDVMTDEEACEMARKRILLWHKKNAVAGDASLLADERRKEGKDPAAMSAAEYLSKLAIQRGSKDNISVVVVDLKPRRKLKSKPLN [G180D] | decreasing interaction
